Literature values in article PMC5750235.
pKd: −log10 of the molar value.

Target: IgE (Homo sapiens) (UniProt P01854)
Sequence (P01854 whole entry): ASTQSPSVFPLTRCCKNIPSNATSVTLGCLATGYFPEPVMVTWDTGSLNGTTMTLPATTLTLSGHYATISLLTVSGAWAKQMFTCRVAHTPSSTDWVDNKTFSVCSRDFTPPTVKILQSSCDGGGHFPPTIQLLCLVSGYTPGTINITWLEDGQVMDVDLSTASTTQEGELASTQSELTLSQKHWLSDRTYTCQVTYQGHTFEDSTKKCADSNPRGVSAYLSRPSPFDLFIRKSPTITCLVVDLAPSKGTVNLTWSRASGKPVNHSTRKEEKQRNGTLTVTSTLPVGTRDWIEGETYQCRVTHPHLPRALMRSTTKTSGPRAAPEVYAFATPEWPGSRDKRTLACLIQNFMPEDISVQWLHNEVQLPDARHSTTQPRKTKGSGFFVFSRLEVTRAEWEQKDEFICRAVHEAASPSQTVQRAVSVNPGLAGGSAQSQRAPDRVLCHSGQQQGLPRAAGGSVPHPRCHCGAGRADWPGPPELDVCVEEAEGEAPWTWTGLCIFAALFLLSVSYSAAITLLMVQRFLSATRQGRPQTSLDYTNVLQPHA

Sequence of CD23 (P06734 48-321): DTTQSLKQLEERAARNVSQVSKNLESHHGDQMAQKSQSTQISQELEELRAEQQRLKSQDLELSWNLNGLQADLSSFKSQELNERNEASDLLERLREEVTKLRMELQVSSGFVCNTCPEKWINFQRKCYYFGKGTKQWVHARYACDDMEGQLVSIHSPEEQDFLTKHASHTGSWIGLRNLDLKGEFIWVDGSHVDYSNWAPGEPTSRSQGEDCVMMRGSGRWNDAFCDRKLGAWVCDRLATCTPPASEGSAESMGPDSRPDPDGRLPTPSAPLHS

CD23 (from UniProt P06734)
pKd: 5.70
